Patent publication US8772235B2, “Compounds having peptides conjugated to bone targeting moieties and methods of making and using thereof” (The Governors of the University of Alberta, priority 2009, dated 2014)

How the values were obtained:
[1] = tested on: RAW 264.7 cells; assay: MTT cytotoxicity on osteoclast precursor RAW 264.7 cells (SMCC series); assay type: cell-based; details: 100, 500 and 1000 nM sCT or equivalent, 4 hrs
Description: RAW 264.7 cells (ATCC VA, USA) were seeded on 96 well plates at an initial density of 2×10^4 cells/well and incubated in 200 μl GIBCO High Glucose 1× Dulbecco's Modified Eagle Medium (DMEM) (Invitrogen CA, USA) supplemented with 4.5 g/L D-Glucose, L-Glutamine, 110 mg/L Sodium Pyruvate, 10% heat inactivated fetal bovine serum (FBS) and 1% Penicillin-Streptomycin (10000 U/mL; Invitrogen) in a Thermo Fisher Scientific Water Jacketed CO2 incubator (37° C., 5% CO2).
After 72 hrs, media was replaced by 200 μl basic DMEM media without FBS and incubated for 30 minutes. […] After removing the supernatant and washing twice with phosphate buffer saline, purple formazan crystals formed were dissolved in 200 μl solubilization solution (in vitro toxicology assay kit, # TOX-1, Sigma Aldrich, St. Louis, USA) and the absorbance was measured at 570 nm using microplate reader. Experiment was performed for n=8 and the absorbance of wells containing cells without sCT treatment was considered as 100% viable and used to calculate the relative viability of sCT treated cells.
In MTT assay, mitochondrial dehydrogenases of viable cells cleave the tetrazolium ring of MTT yielding purple formazan crystals which are insoluble in aqueous solutions. They were dissolved in acidified isopropanol and the resulting purple solution was measured spectrophotometrically. […]

[2] = target: serum albumin (Homo sapiens, UniProt P02768); details: systemically administered; cited from earlier work

## Salmon calcitonin [sCT, reference compound]
[1]
  cytotoxicity (absorbance of formazan solution) compared to untreated media: low levels of cytotoxicity
[2]
  serum albumin bound in circulation: 40%
